Experimental data published in paper PMC7293036.

Test system: eIF4G HEAT1 domain
Test: MST

Substance: 5'tiRNAAla
- Kd: 410 nM
